Legend:
Assay in all cases: peptide EIA, 2 ug/mL IgG;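 further: purified mouse IgG binding to individually well-coated synthetic peptides, detected with peroxidase anti-mouse IgG Fc and o-phenylenediamine, IgG incubated at least 1 h at room temperature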
[1] = target: T1, HCV core peptide 1 (hepatitis C virus, N-terminal biotin; C-terminal amide)
T1 construct: range 1-15
Protocol: (§1) The coated plates were kept dry in a sealed foil pouch and stored at <10 degrees C. until ready for use. A peptide coated plate for each test antibody was blocked using 3% BSA in PBS with 0.5% Tween 20. The blocked plates were washed with distilled water and a 2 ug/mL solution of purified IgG from each test sample diluted in BSA block solution was added to each peptide coated well of the blocked plate and allowed to incubate at room temperature for at least one hour. Following incubation the plates were washed with distilled water. A 200 ng/mL solution of peroxidase labeled F(ab′)2 fragment goat anti-mouse IgG Fc fragment specific (Jackson Immunoresearch) in BSA block solution was added to all wells and incubated at room temperature for 30 minutes. The plates were washed with distilled water and o-phenylenediamine substrate was used as the chromagen to generate signal. Plates were read at 492 nm and the results were analyzed.

[2] = target: T2, HCV core peptide 5 (hepatitis C virus, N-terminal biotin; C-terminal amide)
T2 construct: range 9-23
Protocol: as §1

[3] = target: T3, HCV core peptide 8 (hepatitis C virus, N-terminal biotin; C-terminal amide)
T3 construct: range 15-29
Protocol: as §1

[4] = target: T4, HCV core peptide 9 (hepatitis C virus, N-terminal biotin; C-terminal amide)
T4 construct: range 17-31
Protocol: as §1

[5] = target: T5, HCV core peptide 14 (hepatitis C virus, N-terminal biotin; C-terminal amide)
T5 construct: range 27-41
Protocol: as §1

[6] = target: T6, HCV core peptide 15 (hepatitis C virus, N-terminal biotin; C-terminal amide)
T6 construct: range 29-43
Protocol: as §1

[7] = target: T7, HCV core peptide 19 (hepatitis C virus, N-terminal biotin; C-terminal amide)
T7 construct: range 37-51
Protocol: as §1

[8] = target: T8, HCV core peptide 21 (hepatitis C virus, N-terminal biotin; C-terminal amide)
T8 construct: range 41-55
Protocol: as §1

[9] = target: T9, HCV core peptide 29 (hepatitis C virus, N-terminal biotin; C-terminal amide)
T9 construct: range 57-71
Protocol: as §1

[10] = target: T10, HCV core peptide 30 (hepatitis C virus, N-terminal biotin; C-terminal amide)
T10 construct: range 59-73
Protocol: as §1

[11] = target: T11, HCV core peptide 31 (hepatitis C virus, N-terminal biotin; C-terminal amide)
T11 construct: range 61-75
Protocol: as §1

[12] = target: T12, HCV core peptide 33 (hepatitis C virus, N-terminal biotin; C-terminal amide)
T12 construct: range 65-79
Protocol: as §1

[13] = target: T13, HCV core peptide 34 (hepatitis C virus, N-terminal biotin; C-terminal amide)
T13 construct: range 67-81
Protocol: as §1

[14] = target: T14, HCV core peptide 39 (hepatitis C virus, N-terminal biotin; C-terminal amide)
T14 construct: range 77-91
Protocol: as §1

[15] = target: T15, HCV core peptide 41 (hepatitis C virus, N-terminal biotin; C-terminal amide)
T15 construct: range 81-95
Protocol: as §1

[16] = target: T16, HCV core peptide 42 (hepatitis C virus, N-terminal biotin; C-terminal amide)
T16 construct: range 83-97
Protocol: as §1

[17] = target: T17, HCV core peptide 43 (hepatitis C virus, N-terminal biotin; C-terminal amide)
T17 construct: range 85-99
Protocol: as §1

[18] = target: HCV core peptide 45 (hepatitis C virus, N-terminal biotin; C-terminal amide)
Protocol: as §1

[19] = target: HCV core peptide 46 (hepatitis C virus, N-terminal biotin; C-terminal amide)
Protocol: as §1

[20] = target: T18, HCV core peptide 48 (hepatitis C virus, HELM PEPTIDE1{[O=C1N[C@H]2[C@H](CS[C@H]2CCCCC(=O)[*:2])N1].S.G.S.G.G.W.L.L.S.P.R.G.S.R.P.S.W.G.P.[am]}$$$$V2.0; SMILES …)
T18 construct: also called aa 95-109
T18 peptide: SGSGGWLLSPRGSRPSWGP
Protocol: as §1

[21] = target: T19, HCV core peptide 52 (hepatitis C virus, HELM PEPTIDE1{[O=C1N[C@H]2[C@H](CS[C@H]2CCCCC(=O)[*:2])N1].S.G.S.G.S.R.P.S.W.G.P.T.D.P.R.R.R.S.R.[am]}$$$$V2.0; SMILES …)
T19 peptide: SGSGSRPSWGPTDPRRRSR
Protocol: as §1

[22] = target: HCV core peptide 56 (hepatitis C virus, N-terminal biotin; C-terminal amide)
Protocol: as §1

[23] = target: HCV core peptide 59 (hepatitis C virus, N-terminal biotin; C-terminal amide)
Protocol: as §1

[24] = target: HCV core peptide 60 (hepatitis C virus, N-terminal biotin; C-terminal amide)
Protocol: as §1

[25] = target: T20, HCV core peptide 61 (hepatitis C virus, N-terminal biotin; C-terminal amide)
T20 construct: range 121-135
Protocol: as §1

[26] = target: HCV core peptide 65 (hepatitis C virus, N-terminal biotin; C-terminal amide)
Protocol: as §1

[27] = target: HCV core peptide 69 (hepatitis C virus, N-terminal biotin; C-terminal amide)
Protocol: as §1

[28] = target: HCV core peptide 71 (hepatitis C virus, N-terminal biotin; C-terminal amide)
Protocol: as §1

[29] = target: HCV core peptide 73 (hepatitis C virus, N-terminal biotin; C-terminal amide)
Protocol: as §1

[30] = target: T21, HCV core peptide 75 (hepatitis C virus, N-terminal biotin; C-terminal amide)
T21 construct: range 149-163
Protocol: as §1

[31] = target: HCV core peptide 77 (hepatitis C virus, N-terminal biotin; C-terminal amide)
Protocol: as §1

[32] = target: T22, HCV core peptide 81 (hepatitis C virus, N-terminal biotin; C-terminal amide)
T22 construct: range 161-175
Protocol: as §1

[33] = target: T23, HCV core peptide 82 (hepatitis C virus, N-terminal biotin; C-terminal amide)
T23 construct: range 163-177
Protocol: as §1

B1: Neo4 mouse monoclonal antibody (antibody, V domains shown)
VH: QIQLKESGPAVIKPSQSLSLTCIVSGFSITSSVYCWQWIRQPPGKGLEWMGRICYDGSVDYSPSITSRGTISRDTSLNKVFFQLSSVTNEDTAMYYCSRENHIDYYDTTYPSFDVWGAGTTVTVSS
VL: DIVLTQSPASLIVSLGQRATISCRASKSVNEYGYTYMHWYQQKPGLPPKLLIYLASNLDSGVPARFSGSGSGTDFTLNIHPVEEEDAATYYCQHSRELPYTFGGGTKLEIKR
notes: Mouse hybridoma antibody, isotype IgG1, purified with Protein G; also called HCV Neo4
[1]
  OD (A492 nm): 0.06 OD
[2]
  OD (A492 nm): 0.05 OD
[3]
  OD (A492 nm): 0.06 OD
[4]
  OD (A492 nm): 0.05 OD
[5]
  OD (A492 nm): 0.06 OD
[6]
  OD (A492 nm): 0.06 OD
[7]
  OD (A492 nm): 0.05 OD
[8]
  OD (A492 nm): 0.05 OD
[9]
  OD (A492 nm): 0.04 OD
[10]
  OD (A492 nm): 0.05 OD
[11]
  OD (A492 nm): 0.05 OD
[12]
  OD (A492 nm): 0.05 OD
[13]
  OD (A492 nm): 0.04 OD
[14]
  OD (A492 nm): 0.05 OD
[15]
  OD (A492 nm): 0.04 OD
[16]
  OD (A492 nm): 0.04 OD
[17]
  OD (A492 nm): 0.05 OD
[18]
  OD (A492 nm): 0.04 OD
[19]
  OD (A492 nm): 0.06 OD
[20]
  OD (A492 nm): 0.04 OD
[21]
  OD (A492 nm): 0.93 OD
[22]
  OD (A492 nm): 0.04 OD
[23]
  OD (A492 nm): 0.05 OD
[24]
  OD (A492 nm): 0.06 OD
[25]
  OD (A492 nm): 0.05 OD
[26]
  OD (A492 nm): 0.04 OD
[27]
  OD (A492 nm): 0.05 OD
[28]
  OD (A492 nm): 0.05 OD
[29]
  OD (A492 nm): 0.04 OD
[30]
  OD (A492 nm): 0.1 OD
[31]
  OD (A492 nm): 0.05 OD
[32]
  OD (A492 nm): 0.04 OD
[33]
  OD (A492 nm): 0.04 OD
